Experimental data from US20110165116A1.

Legend:
[1] = molecular target: CCR2 (mouse) (UniProt P51683); test: cell-based or functional assay
[2] = molecular target: ICAM-1-Fc (Homo sapiens (Human)) (UniProt P05362); test: laminar flow adhesion assay, human T cells on coated ICAM-1-Fc
UniProt P05362, sequence (P05362 28-480 limits assumed): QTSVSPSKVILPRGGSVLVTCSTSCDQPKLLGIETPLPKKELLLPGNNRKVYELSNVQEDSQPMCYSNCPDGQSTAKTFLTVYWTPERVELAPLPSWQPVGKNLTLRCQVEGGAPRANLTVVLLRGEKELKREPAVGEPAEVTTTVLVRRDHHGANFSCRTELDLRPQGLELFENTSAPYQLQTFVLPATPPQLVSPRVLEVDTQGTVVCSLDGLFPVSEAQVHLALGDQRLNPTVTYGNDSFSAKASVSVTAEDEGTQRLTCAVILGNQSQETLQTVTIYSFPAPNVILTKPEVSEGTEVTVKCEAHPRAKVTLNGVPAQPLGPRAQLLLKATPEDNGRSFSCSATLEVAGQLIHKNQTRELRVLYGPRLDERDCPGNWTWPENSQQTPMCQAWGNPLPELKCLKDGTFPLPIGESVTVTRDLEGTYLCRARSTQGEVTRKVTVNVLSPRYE

UniProt P51683, sequence (P51683 whole entry): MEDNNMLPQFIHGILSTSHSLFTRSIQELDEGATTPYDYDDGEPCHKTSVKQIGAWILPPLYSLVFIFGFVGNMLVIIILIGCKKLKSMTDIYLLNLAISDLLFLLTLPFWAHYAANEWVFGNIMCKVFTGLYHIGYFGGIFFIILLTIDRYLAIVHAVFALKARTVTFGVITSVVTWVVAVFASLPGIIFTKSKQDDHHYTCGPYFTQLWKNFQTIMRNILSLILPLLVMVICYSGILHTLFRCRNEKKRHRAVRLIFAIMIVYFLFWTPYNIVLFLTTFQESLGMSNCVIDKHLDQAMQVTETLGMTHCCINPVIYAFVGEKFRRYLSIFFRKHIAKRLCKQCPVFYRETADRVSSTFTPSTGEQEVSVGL
LFA-1, sequence (P20701 26-1170): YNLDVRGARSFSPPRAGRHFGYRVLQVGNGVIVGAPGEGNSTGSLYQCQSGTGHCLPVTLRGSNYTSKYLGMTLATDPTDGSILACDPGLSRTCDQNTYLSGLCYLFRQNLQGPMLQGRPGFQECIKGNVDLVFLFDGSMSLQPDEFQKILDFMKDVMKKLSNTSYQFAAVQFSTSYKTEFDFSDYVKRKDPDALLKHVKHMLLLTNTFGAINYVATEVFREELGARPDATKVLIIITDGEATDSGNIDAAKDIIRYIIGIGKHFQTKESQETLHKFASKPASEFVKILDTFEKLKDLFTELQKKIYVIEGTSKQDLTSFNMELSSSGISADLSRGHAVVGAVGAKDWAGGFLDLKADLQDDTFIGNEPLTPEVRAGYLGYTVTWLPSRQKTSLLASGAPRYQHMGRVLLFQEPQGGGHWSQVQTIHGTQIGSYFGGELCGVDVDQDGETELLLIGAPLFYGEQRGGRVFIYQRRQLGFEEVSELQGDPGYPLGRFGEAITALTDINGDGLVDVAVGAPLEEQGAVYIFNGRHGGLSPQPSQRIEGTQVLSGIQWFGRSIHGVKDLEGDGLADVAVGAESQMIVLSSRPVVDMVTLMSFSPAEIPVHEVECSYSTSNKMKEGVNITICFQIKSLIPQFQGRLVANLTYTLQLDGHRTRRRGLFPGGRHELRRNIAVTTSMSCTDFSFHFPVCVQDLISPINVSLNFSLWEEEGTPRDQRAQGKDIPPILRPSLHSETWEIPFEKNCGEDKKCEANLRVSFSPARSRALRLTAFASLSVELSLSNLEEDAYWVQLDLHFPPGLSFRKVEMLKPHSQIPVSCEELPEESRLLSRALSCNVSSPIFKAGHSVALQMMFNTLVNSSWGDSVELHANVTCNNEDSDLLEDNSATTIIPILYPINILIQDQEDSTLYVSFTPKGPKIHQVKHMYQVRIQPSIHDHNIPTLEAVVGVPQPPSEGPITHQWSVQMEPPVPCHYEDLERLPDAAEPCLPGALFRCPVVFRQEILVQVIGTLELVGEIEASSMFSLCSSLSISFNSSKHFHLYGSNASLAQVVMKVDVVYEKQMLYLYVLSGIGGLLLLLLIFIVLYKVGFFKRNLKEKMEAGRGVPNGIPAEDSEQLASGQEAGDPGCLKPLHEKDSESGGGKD
LFA-1, sequence (P05107 23-769, further chain): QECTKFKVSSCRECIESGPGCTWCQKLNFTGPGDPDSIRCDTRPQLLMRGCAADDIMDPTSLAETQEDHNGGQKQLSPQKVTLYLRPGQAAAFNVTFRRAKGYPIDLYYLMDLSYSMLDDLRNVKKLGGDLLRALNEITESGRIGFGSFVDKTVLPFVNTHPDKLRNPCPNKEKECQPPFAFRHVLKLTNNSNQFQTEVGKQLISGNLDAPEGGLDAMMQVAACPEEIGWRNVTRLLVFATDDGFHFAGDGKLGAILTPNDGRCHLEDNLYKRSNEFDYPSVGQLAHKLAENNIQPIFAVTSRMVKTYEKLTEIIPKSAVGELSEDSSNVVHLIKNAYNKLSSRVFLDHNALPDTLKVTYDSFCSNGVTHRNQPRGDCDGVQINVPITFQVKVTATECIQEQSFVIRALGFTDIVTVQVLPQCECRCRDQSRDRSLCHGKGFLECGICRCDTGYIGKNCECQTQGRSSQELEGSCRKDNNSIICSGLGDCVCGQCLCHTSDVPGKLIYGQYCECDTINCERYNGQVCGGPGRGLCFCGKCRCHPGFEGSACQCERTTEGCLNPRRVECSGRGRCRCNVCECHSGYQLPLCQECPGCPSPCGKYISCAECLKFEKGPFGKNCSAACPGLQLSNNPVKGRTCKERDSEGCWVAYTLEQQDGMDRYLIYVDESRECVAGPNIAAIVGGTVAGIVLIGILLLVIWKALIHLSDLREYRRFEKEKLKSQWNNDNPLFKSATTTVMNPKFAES

Substance	decrease in actin polymerization of naive T cells induced by CXCL12 or CCL21 (FITC-phalloidin, FACS) [1]	decrease in migration of naive T cells in a Transwell assay towards CXCL12 or CCL21 after pretreatment with CCL2 (0.1 ng/ml) [1]	percent of cellular tethers to ICAM-1 blocked by LFA-1 blockers [2]
CCL2 (ligand)	40 to 50%	40 to 50%	
LFA-1 (from UniProt P20701 26-1170; P05107 23-769) (receptor; other documents disagree on this pair)			> 90%
